pKd: −log10 of the molar value.
Columns and labels:
[1] = molecular target: hexon of the Ad5 vector Ad5.6 (on virions) (human adenovirus 5) (UniProt P04133); test: SPR; Biacore T200; about 300 to 5,000 RU of Ad virions immobilised on a CM5 chip, coagulation factors flowed over at four concentrations, 50 uL/min; running buffer 10 mM HEPES, 150 mM NaCl, 1 mM CaCl2, 0.5 mM MgCl2, 0.1% BSA, 0.05% polysorbate 20, pH 7.4; regeneration with 3 mM EDTA; global fit to a 1:1 kinetic interaction model, double referencing
[2] = molecular target: hexon of wild-type human adenovirus type 1 (on virions) (human adenovirus 1); test: as above
[3] = molecular target: chimeric hexon of the Ad5 vector Ad5:H1.1 (Ad5 hexon with residues 112-593 from Ad1 hexon, on virions) (human adenovirus 5 | human adenovirus 1) (UniProt P04133); test: as above
[4] = molecular target: chimeric hexon of the Ad5 vector Ad5:H6.1 (Ad5 hexon with residues 112-593 from Ad6 hexon, on virions) (human adenovirus 5 | human adenovirus 6) (UniProt P04133); test: as above
[5] = molecular target: hexon of the Ad5 vector Ad5.5 (on virions) (human adenovirus 5) (UniProt P04133); test: as above
[6] = molecular target: hexon of the Ad5 vector Ad5.4 (HVR7 mutant, on virions) (human adenovirus 5) (UniProt P04133); test: as above
[7] = molecular target: chimeric hexon of the Ad5 vector Ad5:H1.2 (Ad1 hexon section with HVR7 mutations, on virions) (human adenovirus 5 | human adenovirus 1) (UniProt P04133); test: as above
[8] = molecular target: hexon of the Ad5 vector Ad5.10 (Ad5 hexon with HVR1 of Ad6 hexon, on virions) (human adenovirus 5) (UniProt P04133); test: as above
[9] = molecular target: chimeric hexon of the Ad5 vector Ad5:H57.1 (Ad5 hexon with residues 112-593 from Ad57 hexon, on virions) (human adenovirus 5 | human adenovirus 57) (UniProt P04133); test: as above
[10] = molecular target: hexon of Ad5.10 (Ad5 vector, hexon HVR1 replaced with the HVR1 of Ad6 hexon), on the virion (human adenovirus type 5) (UniProt P04133); test: SPR; Biacore T200; about 300 to 5,000 RU of Ad virions immobilised on a CM5 chip, coagulation factors flowed over at four concentrations, 50 uL/min; 10 mM HEPES, 150 mM NaCl, 1 mM CaCl2, 0.5 mM MgCl2, 0.1% BSA, 0.05% polysorbate 20, pH 7.4; global fit to a 1:1 kinetic interaction model, double referencing

## human coagulation factor X (from UniProt P00742 41-488) (natural protein)
[1]
  pKd: 9.03
  koff: 0.000127 s⁻¹
  kon: 135000 M⁻¹ s⁻¹
[2]
  pKd: 6.66
  koff: 0.0501 s⁻¹
  kon: 232000 M⁻¹ s⁻¹
[3]
  pKd: 6.52
  koff: 0.077 s⁻¹
  kon: 253000 M⁻¹ s⁻¹
[4]
  pKd: 7.37
  koff: 0.00914 s⁻¹
  kon: 214000 M⁻¹ s⁻¹
[5]
  pKd: 8.28
  koff: 0.000661 s⁻¹
  kon: 126000 M⁻¹ s⁻¹
[6]
  pKd: 8.00
  koff: 0.000338 s⁻¹
  kon: 33900 M⁻¹ s⁻¹
[7]
  pKd: 6.19
  koff: 0.0631 s⁻¹
  kon: 97200 M⁻¹ s⁻¹
[8]
  pKd: 8.96
  koff: 0.000122 s⁻¹
  kon: 112000 M⁻¹ s⁻¹
[9]
  pKd: 7.24
  koff: 0.00316 s⁻¹
  kon: 54300 M⁻¹ s⁻¹
[10]
  pKd: 8.96

## mouse coagulation factor X (from UniProt O88947 41-481) (natural protein)
[1]
  pKd: 9.43
  koff: 0.000115 s⁻¹
  kon: 310000 M⁻¹ s⁻¹
[2]
  pKd: 9.51
  koff: 7.73e-05 s⁻¹
  kon: 253000 M⁻¹ s⁻¹
[3]
  pKd: 9.09
  koff: 0.000372 s⁻¹
  kon: 454000 M⁻¹ s⁻¹
[4]
  pKd: 9.51
  koff: 3.78e-05 s⁻¹
  kon: 122000 M⁻¹ s⁻¹
[5]
  pKd: 8.60
  koff: 0.00104 s⁻¹
  kon: 416000 M⁻¹ s⁻¹
[6]
  pKd: 8.72
  koff: 0.000479 s⁻¹
  kon: 248000 M⁻¹ s⁻¹
[7]
  pKd: 8.30
  koff: 0.00084 s⁻¹
  kon: 169000 M⁻¹ s⁻¹
[8]
  pKd: 9.24
  koff: 0.00014 s⁻¹
  kon: 240000 M⁻¹ s⁻¹
[9]
  pKd: 9.19
  koff: 9.23e-05 s⁻¹
  kon: 143000 M⁻¹ s⁻¹
[10]
  pKd: 9.24

## bovine coagulation factor X (from UniProt P00743 41-492) (natural protein)
[1]
  pKd: 5.79
  koff: 0.167 s⁻¹
  kon: 104000 M⁻¹ s⁻¹
[2]
  pKd: 6.80
  koff: 0.0381 s⁻¹
  kon: 232000 M⁻¹ s⁻¹
[3]
  pKd: 6.66
  koff: 0.0512 s⁻¹
  kon: 236000 M⁻¹ s⁻¹
[4]
  pKd: 7.01
  koff: 0.0132 s⁻¹
  kon: 135000 M⁻¹ s⁻¹
[5]
  pKd: 6.36
  koff: 0.169 s⁻¹
  kon: 387000 M⁻¹ s⁻¹
[6]
  pKd: 6.27
  koff: 0.147 s⁻¹
  kon: 274000 M⁻¹ s⁻¹
[7]
  pKd: 5.96
  koff: 0.085 s⁻¹
  kon: 77400 M⁻¹ s⁻¹
[8]
  pKd: 6.56
  koff: 0.151 s⁻¹
  kon: 549000 M⁻¹ s⁻¹
[9]
  pKd: 7.55
  koff: 0.00342 s⁻¹
  kon: 121000 M⁻¹ s⁻¹
[10]
  pKd: 6.56

## mouse prothrombin (coagulation factor II) (from UniProt P19221 44-618) (natural protein)
[1]
  pKd: 6.38
  koff: 0.026 s⁻¹
  kon: 62400 M⁻¹ s⁻¹
[2]
  pKd: 7.85
  koff: 0.000687 s⁻¹
  kon: 49800 M⁻¹ s⁻¹
[3]
  pKd: 7.80
  koff: 0.00118 s⁻¹
  kon: 71600 M⁻¹ s⁻¹
[4]
  pKd: 8.07
  koff: 0.000535 s⁻¹
  kon: 62200 M⁻¹ s⁻¹
[5]
  pKd: 6.67
  koff: 0.0676 s⁻¹
  kon: 314000 M⁻¹ s⁻¹
[6]
  pKd: 4.44
  koff: 0.281 s⁻¹
  kon: 7770 M⁻¹ s⁻¹
[7]
  pKd: 5.89
  koff: 0.0483 s⁻¹
  kon: 36800 M⁻¹ s⁻¹
[8]
  pKd: 6.45
  koff: 0.06 s⁻¹
  kon: 168000 M⁻¹ s⁻¹
[9]
  pKd: 8.00
  koff: 0.00031 s⁻¹
  kon: 29800 M⁻¹ s⁻¹
[10]
  pKd: 6.45

Reference: article PMC9536601
